Patent US9175313B2, “Three-dimensional structure of isoprene synthase and its use thereof for generating variants” (Danisco US Inc., priority 2009, dated 2015)

Assay: Specific activity measurement of purified isoprene synthase variants (4 mM DMAPP, 30 C, GC-MS headspace)
Type: biochemical
Conditions: 50 mM NaCl, 50 mM Tris pH = 8, 30° C.; for Variant S.A./WT S.A.: ratio to WT
Procedure: 1. Initial Purification—Resuspend the pellet in 3 ml of fresh lysis buffer. Break cells by passing them through the French Press using the small cylinder. Centrifuge samples for 1 hour at 30,000×G and collect the supernatant. Retain pellet in order to test for presence of insoluble protein. Pre equilibrate 0.5 mL Ni Sepharose 6 Fast Flow resin (Amersham) in a 20 ml disposable column with 10 mL of Ni wash buffer. Add protein to column and shake for 60 min at 4 C to bind protein. Elute protein with 2.5 mL Ni elution buffer.
2. Buffer Exchange—Equilibrate a PD-10 column (GE Healthcare) with 25 mL of PD-10 buffer. Load protein on to column and elute with 3.5 mL of PD-10 buffer.
10 uL of purified enzyme was incubated with 4 mM DMAPP, 50 mM MgCl2 in a buffer containing 50 mM Tris and 50 mM NaCl (pH=8) to a final volume of 100 uL for 15 min. at 30 C in gas tight 2 mL vials. Reactions were terminated with the addition of 100 uL of […] EDTA, pH=8. Samples were analyzed by GC-MS to determine the concentration of isoprene in the headspace of the vials. All specific activity measurements were performed in triplicate.
Protein concentration was determined by measuring the absorbance of each protein solution at 280 nm on a Helwlett Pachard 8453 UV-Vis spectrophotometer and converting the absorbance to protein concentration using the extinction coefficient as determined on the Expasy website (Gasteiger E., Hoogland C., Gattiker A., Duvaud S., Wilkins M. R., Appel R. D., Bairoch A.; Protein Identification and Analysis Tools on the ExPASy Server; (In) John M. Walker (ed): The Proteomics Protocols Handbook, Humana Press (2005). pp. 571-607). The protein concentrations of isoprene synthase variants assayed for KM and kcat determination were verified by comparative gel electrophoresis of a dilution series of each protein (FIG. 61).

Molecule	S.A. [nmol/mg/min]	Variant S.A./WT S.A.
PC: P. alba MEA L494P T536C (+) TEV; pDW113, SEQ ID NO: 93 (protein, TEV site) MEARRSANYEPNSWDYDYLLSSDTDESIEVYKDKAKKLEAEVRREINNEKAEFLTLLELIDNVQRLGLGYRFESDIRGALDRFVSSGGFDAVTKTSLHGTALSFRLLRQHGFEVSQEAFSGFKDQNGNFLENLKEDIKAILSLYEASFLALEGENILDEAKVFAISHLKELSEEKIGKELAEQVNHALELPLHRRTQRLEAVWSIEAYRKKEDANQVLLELAILDYNMIQSVYQRDLRETSRWWRRVGLATKLHFARDRLIESFYWAVGVAFEPQYSDCRNSVAKMFSFVTIIDDIYDVYGTLDELELFTDAVERWDVNAINDLPDYMKLCFLALYNTINEIAYDNLKDKGENILPYLTKAWADLCNAFLQEAKWLYNKSTPTFDDYFGNAWKSSSGPLQLVFAYFAVVQNIKKEEIENLQKYHDTISRPSHIFRLCNDLASASAEIARGETANSVSCYMRTKGISEELATESVMNLIDETWKKMNKEKLGGSPFAKPFVETAINLARQSHCTYHNGDAHTSPDELTRKRVLSVICEPILPFERENLYFQGLEHHHHHH	490 ± 20	1.0
SC: P. alba MEA G491S T536C (+) TEV; pDW111, SEQ ID NO: 89 (protein, TEV site) MEARRSANYEPNSWDYDYLLSSDTDESIEVYKDKAKKLEAEVRREINNEKAEFLTLLELIDNVQRLGLGYRFESDIRGALDRFVSSGGFDAVTKTSLHGTALSFRLLRQHGFEVSQEAFSGFKDQNGNFLENLKEDIKAILSLYEASFLALEGENILDEAKVFAISHLKELSEEKIGKELAEQVNHALELPLHRRTQRLEAVWSIEAYRKKEDANQVLLELAILDYNMIQSVYQRDLRETSRWWRRVGLATKLHFARDRLIESFYWAVGVAFEPQYSDCRNSVAKMFSFVTIIDDIYDVYGTLDELELFTDAVERWDVNAINDLPDYMKLCFLALYNTINEIAYDNLKDKGENILPYLTKAWADLCNAFLQEAKWLYNKSTPTFDDYFGNAWKSSSGPLQLVFAYFAVVQNIKKEEIENLQKYHDTISRPSHIFRLCNDLASASAEIARGETANSVSCYMRTKGISEELATESVMNLIDETWKKMNKEKLSGSLFAKPFVETAINLARQSHCTYHNGDAHTSPDELTRKRVLSVICEPILPFERENLYFQGLEHHHHHH	440 ± 20	0.9
G491S: P. alba IspS variant G491S; pDW100, strain DW398, SEQ ID NO: 67 (protein) MEARRSANYEPNSWDYDYLLSSDTDESIEVYKDKAKKLEAEVRREINNEKAEFLTLLELIDNVQRLGLGYRFESDIRGALDRFVSSGGFDAVTKTSLHGTALSFRLLRQHGFEVSQEAFSGFKDQNGNFLENLKEDIKAILSLYEASFLALEGENILDEAKVFAISHLKELSEEKIGKELAEQVNHALELPLHRRTQRLEAVWSIEAYRKKEDANQVLLELAILDYNMIQSVYQRDLRETSRWWRRVGLATKLHFARDRLIESFYWAVGVAFEPQYSDCRNSVAKMFSFVTIIDDIYDVYGTLDELELFTDAVERWDVNAINDLPDYMKLCFLALYNTINEIAYDNLKDKGENILPYLTKAWADLCNAFLQEAKWLYNKSTPTFDDYFGNAWKSSSGPLQLVFAYFAVVQNIKKEEIENLQKYHDTISRPSHIFRLCNDLASASAEIARGETANSVSCYMRTKGISEELATESVMNLIDETWKKMNKEKLSGSLFAKPFVETAINLARQSHCTYHNGDAHTSPDELTRKRVLSVITEPILPFERENLYFQGLEHHHHHH	480 ± 20	1.0
NS: P. alba MEA A453N G491S (+) TEV; pDW103, SEQ ID NO: 73 (protein, TEV site) MEARRSANYEPNSWDYDYLLSSDTDESIEVYKDKAKKLEAEVRREINNEKAEFLTLLELIDNVQRLGLGYRFESDIRGALDRFVSSGGFDAVTKTSLHGTALSFRLLRQHGFEVSQEAFSGFKDQNGNFLENLKEDIKAILSLYEASFLALEGENILDEAKVFAISHLKELSEEKIGKELAEQVNHALELPLHRRTQRLEAVWSIEAYRKKEDANQVLLELAILDYNMIQSVYQRDLRETSRWWRRVGLATKLHFARDRLIESFYWAVGVAFEPQYSDCRNSVAKMFSFVTIIDDIYDVYGTLDELELFTDAVERWDVNAINDLPDYMKLCFLALYNTINEIAYDNLKDKGENILPYLTKAWADLCNAFLQEAKWLYNKSTPTFDDYFGNAWKSSSGPLQLVFAYFAVVQNIKKEEIENLQKYHDTISRPSHIFRLCNDLASASAEIARGETNNSVSCYMRTKGISEELATESVMNLIDETWKKMNKEKLSGSLFAKPFVETAINLARQSHCTYHNGDAHTSPDELTRKRVLSVITEPILPFERENLYFQGLEHHHHHH	480 ± 40	1.0
NP: P. alba MEA A453N L494P (+) TEV; pDW104, SEQ ID NO: 75 (protein, TEV site) MEARRSANYEPNSWDYDYLLSSDTDESIEVYKDKAKKLEAEVRREINNEKAEFLTLLELIDNVQRLGLGYRFESDIRGALDRFVSSGGFDAVTKTSLHGTALSFRLLRQHGFEVSQEAFSGFKDQNGNFLENLKEDIKAILSLYEASFLALEGENILDEAKVFAISHLKELSEEKIGKELAEQVNHALELPLHRRTQRLEAVWSIEAYRKKEDANQVLLELAILDYNMIQSVYQRDLRETSRWWRRVGLATKLHFARDRLIESFYWAVGVAFEPQYSDCRNSVAKMFSFVTIIDDIYDVYGTLDELELFTDAVERWDVNAINDLPDYMKLCFLALYNTINEIAYDNLKDKGENILPYLTKAWADLCNAFLQEAKWLYNKSTPTFDDYFGNAWKSSSGPLQLVFAYFAVVQNIKKEEIENLQKYHDTISRPSHIFRLCNDLASASAEIARGETNNSVSCYMRTKGISEELATESVMNLIDETWKKMNKEKLGGSPFAKPFVETAINLARQSHCTYHNGDAHTSPDELTRKRVLSVITEPILPFERENLYFQGLEHHHHHH	490 ± 20	1.0
NC: P. alba MEA A453N T536C (+) TEV; pDW105, SEQ ID NO: 77 (protein, TEV site) MEARRSANYEPNSWDYDYLLSSDTDESIEVYKDKAKKLEAEVRREINNEKAEFLTLLELIDNVQRLGLGYRFESDIRGALDRFVSSGGFDAVTKTSLHGTALSFRLLRQHGFEVSQEAFSGFKDQNGNFLENLKEDIKAILSLYEASFLALEGENILDEAKVFAISHLKELSEEKIGKELAEQVNHALELPLHRRTQRLEAVWSIEAYRKKEDANQVLLELAILDYNMIQSVYQRDLRETSRWWRRVGLATKLHFARDRLIESFYWAVGVAFEPQYSDCRNSVAKMFSFVTIIDDIYDVYGTLDELELFTDAVERWDVNAINDLPDYMKLCFLALYNTINEIAYDNLKDKGENILPYLTKAWADLCNAFLQEAKWLYNKSTPTFDDYFGNAWKSSSGPLQLVFAYFAVVQNIKKEEIENLQKYHDTISRPSHIFRLCNDLASASAEIARGETNNSVSCYMRTKGISEELATESVMNLIDETWKKMNKEKLGGSLFAKPFVETAINLARQSHCTYHNGDAHTSPDELTRKRVLSVICEPILPFERENLYFQGLEHHHHHH	420 ± 30	0.9
